Source: publication PMC10122671, “IS21 family transposase cleaved donor complex traps two right-handed superhelical crossings”

Assays:
[1] = biological target: Geobacillus stearothermophilus IstA (IS5376 transposase, IS21 family) (Geobacillus stearothermophilus); assay: cryo-EM structure; IstA mixed 1:1.5 with the pre-cleaved right TIR DNA (5-nt 5' overhang), complex isolated by gel filtration; 50 mM HEPES pH 7.5, 150 mM NaCl, 5 mM MgCl2, 1 mM DTT, 0.005% Tween-20; 3.4 Å, C2 symmetry
[2] = biological target: T1, IstA-MBP (Geobacillus stearothermophilus, UniProt Q45618 1-400); assay: fluorescence anisotropy; apparent Kd; Hill coefficient 2.2; 5 mM Mg2+; Fluorescence anisotropy: 50 mM HEPES pH 7.5, 150 mM NaCl, 5 mM MgCl2, 10% glycerol, 1 mM beta-mercaptoethanol, 0.1 mg/ml BSA, 5 nM DNA, 37 °C, 5 min; details: protein: recombinant; tags: C-terminal TEV-cleavable MBP-His6; label: 5'-FAM on strand 1; blunt
T1 sequence: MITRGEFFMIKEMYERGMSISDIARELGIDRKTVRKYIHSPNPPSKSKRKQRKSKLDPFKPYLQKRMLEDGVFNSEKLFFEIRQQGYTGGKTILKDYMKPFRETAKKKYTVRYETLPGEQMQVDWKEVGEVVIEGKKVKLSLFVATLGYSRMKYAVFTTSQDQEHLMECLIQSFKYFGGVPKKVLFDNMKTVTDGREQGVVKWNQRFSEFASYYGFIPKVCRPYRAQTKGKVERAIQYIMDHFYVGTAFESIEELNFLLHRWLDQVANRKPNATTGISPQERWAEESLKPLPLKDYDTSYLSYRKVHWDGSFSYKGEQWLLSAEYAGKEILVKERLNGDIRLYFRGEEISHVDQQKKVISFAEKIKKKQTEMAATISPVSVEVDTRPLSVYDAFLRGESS

[3] = biological target: T1, IstA-MBP; assay: fluorescence anisotropy; apparent Kd; Hill coefficient 1.5; 5 mM Mg2+; Fluorescence anisotropy: 50 mM HEPES pH 7.5, 150 mM NaCl, 5 mM MgCl2, 10% glycerol, 1 mM beta-mercaptoethanol, 0.1 mg/ml BSA, 5 nM DNA, 37 °C, 5 min; details: protein: recombinant; tags: C-terminal TEV-cleavable MBP-His6; label: 5'-FAM on strand 1; blunt
[4] = biological target: T1, IstA-MBP; assay: fluorescence anisotropy; apparent Kd; Hill coefficient 3.6; 5 mM Mg2+; Fluorescence anisotropy: 50 mM HEPES pH 7.5, 150 mM NaCl, 5 mM MgCl2, 10% glycerol, 1 mM beta-mercaptoethanol, 0.1 mg/ml BSA, 5 nM DNA, 37 °C, 5 min; details: protein: recombinant; tags: C-terminal TEV-cleavable MBP-His6; label: 5'-FAM on strand 1; blunt
[5] = biological target: T2, IstA (Geobacillus stearothermophilus, UniProt Q45618 1-400); assay: cryo-EM structure (3.4 A); 5 mM Mg2+; IstA tetramer with two DNA ends; Fluorescence anisotropy: 50 mM HEPES pH 7.5, 150 mM NaCl, 5 mM MgCl2, 10% glycerol, 1 mM beta-mercaptoethanol, 0.1 mg/ml BSA, 5 nM DNA, 37 °C, 5 min; details: protein: recombinant; tags: MBP-His6 tag removed by TEV; 5' overhang 5 nt on strand 2; two duplex copies per tetramer
T2 sequence: T1 sequence

[6] = biological target: T1, IstA-MBP; assay: fluorescence anisotropy; apparent Kd; Hill coefficient 1.2; 5 mM Mg2+; Fluorescence anisotropy: 50 mM HEPES pH 7.5, 150 mM NaCl, 5 mM MgCl2, 10% glycerol, 1 mM beta-mercaptoethanol, 0.1 mg/ml BSA, 5 nM DNA, 37 °C, 5 min; details: protein: recombinant; tags: C-terminal TEV-cleavable MBP-His6; label: 5'-FAM on strand 1; blunt

## Geobacillus stearothermophilus IstA (IS5376 transposase, IS21 family) (enzyme)
[1]
  stoichiometry N: 4

B1: Rd27 (dsDNA)
DNA 1: TGCTAACACGTCGGATCATCGCAAGCA
DNA 2: TGCTTGCGATGATCCGACGTGTTAGCA
[2]
  Kd: 121 nM

B2: Rd60 (dsDNA)
DNA 1: TGCTTGCGATGATCCGACGTGTTAGCCACGCTGACTAGTTATGCCATGCCTCCCTTCAGG
DNA 2: CCTGAAGGGAGGCATGGCATAACTAGTCAGCGTGGCTAACACGTCGGATCATCGCAAGCA
[3]
  Kd: 191 nM

B3: R1-R2 (pre-cleaved full right TIR) (dsDNA)
DNA 1: CCTTCTGGGGAATTTTAAACCGGCGATTTTGGGGAAAAAATAATCGGCCTTGACA
DNA 2: TGTCAAGGCCGATTATTTTTTCCCCAAAATCGCCGGTTTAAAATTCCCCAGAAGG
[4]
  Kd: 125 nM

B4: Pre-cleaved right TIR with 5 nt 5' overhang (dsDNA)
DNA 1: B3 DNA 1
DNA 2: ATTCATGTCAAGGCCGATTATTTTTTCCCCAAAATCGCCGGTTTAAAATTCCCCAGAAGG
[5]
  binding result: binds

B5: R1 (27 bp right TIR) (dsDNA)
DNA 1: TTGGGGAAAAAATAATCGGCCTTGACA
DNA 2: TGTCAAGGCCGATTATTTTTTCCCCAA
[6]
  Kd: 176 nM
